From PMC4858740 (2016)

T1: CD45RO ECD (human)
T1 chain: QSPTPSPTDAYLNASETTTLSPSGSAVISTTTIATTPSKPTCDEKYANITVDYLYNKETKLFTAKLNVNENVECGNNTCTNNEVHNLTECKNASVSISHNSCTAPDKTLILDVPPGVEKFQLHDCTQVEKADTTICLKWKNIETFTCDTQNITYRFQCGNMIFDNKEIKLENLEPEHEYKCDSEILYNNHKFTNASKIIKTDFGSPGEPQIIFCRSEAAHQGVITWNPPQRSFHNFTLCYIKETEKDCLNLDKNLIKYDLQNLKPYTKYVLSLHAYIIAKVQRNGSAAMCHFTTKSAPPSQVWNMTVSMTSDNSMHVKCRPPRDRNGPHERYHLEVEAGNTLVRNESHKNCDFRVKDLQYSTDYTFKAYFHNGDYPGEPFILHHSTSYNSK

T2: SLAMF4 ECD (human, UniProt Q9BZW8 22-229)
T2 chain: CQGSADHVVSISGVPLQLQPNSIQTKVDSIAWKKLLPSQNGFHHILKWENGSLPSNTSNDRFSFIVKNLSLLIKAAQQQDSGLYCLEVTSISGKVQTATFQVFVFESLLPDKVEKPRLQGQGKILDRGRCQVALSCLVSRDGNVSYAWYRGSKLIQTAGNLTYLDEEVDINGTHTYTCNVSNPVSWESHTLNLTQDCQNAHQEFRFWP

B1: HAdV-D39 E3/49K (Fc fusion)
chain: KIDNEDVIGHWGKNITLVGPPEKPIEWHGPRVQLCDGSKILHPEFNHTCNEQNLTLIFLNNSFNGKYYGIRKDGFGMKQYTLKVIAPKASTRRPLSPPQQIDVRMGQNVTLVGPVDTPVNWHGPKHELCRGSQVIHPEVNHTCNEQNLTLLFVNYTFWGAYLGFNRYGTDRVHYEVTIIDGFKNAGQQKDETGQHNPSNKDRPNPKVKNPQRTKNTHKTNTQNKKDIEKDFRKGTNQTLVGPPGSKVDWYEGKNGDLVKLCDGKSGLKVSCNDQNITLINVNETYSGTYYGSNDEDHRQYKVTVYTIPRNETVKIQPHTTKGTTGGSTVNEQFALQQDNDRTNQNDEQIPSTT
B2: HAdV-D37 E3/49K (Fc fusion)
chain: GFHTINATWWANITLVGPPDTPVTWYDTQGLWFCNGSRVKNPQIRHTCNDQNLTLIHVNKTYERTYMGYNRQGTKKEDYKVVVIPPPPATVKPQPEPEYVFVYMGENKTLEGPPGTPVTWFNQDGKKFCEGEKVLHPEFNHTCDKQNLILLFVNFTHDGAYLGYNHQGTQRTHYEVTVLDLFPDSGQMKIENHSEETEQKNDEHHNWQKQGGQKQGGQKTNQTKVNDRRKTAQKRPSKLKPATIEAMLVTVTAGSNLTLVGPKAEGKVTWFDGDLKRPCEPNYRLRHECNNQNLTLINVTKDYEGTYYGTNDKDEGKRYRVKVNTTNSQSVKIQPYTRQTTPDQEHKFELQFETNGNYDSKIPSTT
B3: HAdV-D19a E3/49K (Fc fusion)
chain: B2 chain
B4: HAdV-D28 E3/49K (Fc fusion)
chain: QAVHVNLEICYGCNGTLIGPPKTPVEWYDGRGHKLCAGTDTFRKELNHTCNLQNMTLTFVNLTHKGTYYGFGSDNKNSRVYQVTIKPPVLTTRRPLLKPEDVVITKGNNKTLVGPPDTPVDWYDGSGHKLCKGKEVHYPELNHTCNEQNLTLIFVNATFKGTYYGFRKDGTDKKEYRVTIDDLYAKQLKQEKDEKPRSGHDKQKSKSQERQNPKTEERHEHRDVVKEVSFRTGTNQTLVGPPGSNVDWLKIGNGGTFSELCKGDDKHYSCNSQNLTIINVTRSDEGSYYGSNDDSAHYRVSVYDPVQKKRVMKIQPHTTKTTTEGTTKSSTNESDENFALQQGNNGENNQSDETNIPS
B5: HAdV-D43 E3/49K (Fc fusion)
chain: QIEHEKQSVQWGKNITLVGPNDKPVEWHGPRDQLCKGKQILHPEFNHTCNEQNLTLLFVNNTFQGIYYGIRNDGRGMKQIQLTVVAPPASTRKPLSKPKQVNVQYGHNVTLEGPPGIPIDWLGPTNQLCKGKEILHPEINHTCNVQNLTLLFVNYTHRGAYFGFNKDGTDRHHYEVTILDGFTNAGQTKEESVSDKSKGKTSSKEKKTQKNNSQRNDDVKELDFPSGSNQTLVGPPGSKVDWYTTKNGDFTKLCDGLNGPKNLCNYQNLTLRNVSRQDEGTYFGSNEQSKHYRVTVYTKPRNQTKRIQPYTTKGTTKSTLGNHSFELQLADDQSNQQDQQIPSTT
B6: HAdV-D9 E3/49K (Fc fusion)
chain: GIINLNVSWGMNLTLVGPSDLPVTWYDGKGMQFCDGNTIKNPQIKHSCNQQNLTLLNADKSHERTYLGYRHDSKGKVDYKVTVIPPPPATRKPLSEPHYVTVTMGDNITLVGPSDLPVTWYDGEGNKFCDGEKVEHAEFNHTCNIQNLTLLFVNLTHNGAYIGYNKDGSDRELYEVSVKTLFQNGAGQSKVEQGNKGKPNTAQSGGKKTKTEHRNQSPKRKSTNNLQPTQLYVRPFTNVSLTGPPNGKVTWYDGELNDPCEQKYKLRTFCNQQNLTLINVSSTYDGIYYGTDEKDKANRYRIKVNTTNHKTVKIKPHTREPPAVQEKQFELQDAETDENESKIPSAT
B7: HAdV-D24 E3/49K (Fc fusion)
chain: GIHIINATWWDNITLVGPSDTPVTWYDGKGLQFCDGSTVKNPQIRHTCNDQNLTLIHVNKTHERTYMGYRHDSKGKVDYKVTVIPPPPATVKPQPDPENVFVYMGNNVTLVGPPGIPVSWYYHNGTQFCDGDKIIHPEFNHTCDKQNLTLLFVNFTHDGGYLGFNYKGTQRIQYEVIVLDRFPNSGQMKIEEQSEETEQKHTEHNKAGQKQGIDTNQKKANNRQKPSQRPSRRRPTNTPETKQLTVSIGSNLTLVGPDGKVTWYDGDLKRPCEEQNYRLPHQCSAQNLTLINVTKSHEGTYYGTNDKDESKRYRVKVNTTNSQAVKINPYTRPTTPDQKHRFELQIENNANDEESKIPSTT
B8: HAdV-D58 E3/49K (Fc fusion)
chain: SQAGFHTINATWWANITLVGPSDTPVTWYDKQGMQFCDGNTVKNPQIRHECNEQNLTLIHVNKTHERTYMGYNRQSTHKEDYKVIVIPPPPATVKPQSGPEYVYVNMGENKTLVGPPGIPVTWYDGEGNKFCDGEKVEHAEFNHTCDVQNLTLLFINLTHDGAYLGYNHQGTKRTWYEVVVTDGFPKSGEMKIEDQSRQTEQKQTGQKQNEHKQGGQKQEGQKETSQKKANDKQKATHRRPSKLKPHTPEAKLITVSSGSNLTLLGPDGKVTWYDDDLKRPCEPGYKLNCKCDNQNLTLINVTKLYEGVYYGTNDGGNGKRYRVKVNTTNSQNVKIQPYTRPTTPDQKHRFELQIDYNQDNDKIPSTT
B9: HAdV-D51 E3/49K (Fc fusion)
chain: LLESKVVKIPYGSTYVLVGPRDPPVQWFGGGDFTMFCNGSKTHLQNIRHTCNEQNLTLLSVGYGHRGDYYGFRHDNTGRKHYKVIIEAPPPVTRKPLSEIKYVNVTMGQNLTLSGPPGTPVTWHGEGHKLCEGKNVFYRELNHTCTEKDLILLFVNRTHNGPYIGYNKEGTDREHYEVSVLDLMPIAGQGLDSKNKEQKIPPKRKSKDKVQEVNFPTGTDQTLIGPPGQKIDWHVSSNDGQFKKLCETKDGKHSCHGRNITIFNISRADEGSYYGSSHDGSSHYKVTVYDKSSFGKAKIKIDPYTTKGTTTENYEFELQQGNDESDDQKQIPSTT
B10: HAdV-D47 E3/49K (Fc fusion)
chain: EAETVIVDVKSGTNHTLEGPRKTPVQWYGGADFIMYCNGSKIHHKELNHTCSIQNITLTFINRTHHGTYYGFASDNQNSKVYHVRVDLEPPRPRATLAPPQDITIKYGSNRTLQGPNVTPVSWYDGEGNRFCDGDEIDHPELNHTCNAQNLTLLFVNETHERTYYGVSGDWKQRNEYDVTVIKTQNHKNAMQQKVEQKVEQKPSKRPKQKTLQTTIQVTIPIGSNYTLVGPSPPVSWHTTKNGLTELCNGNPILRHTCDGQNITLINVNATFEADYYGSNNNSESKHYRVKVFKQRKDQALLFRPLTTKGTTGGSTVNEQFALQQGNDKTNQNDEQIPSTT
B11: HAdV-A18 CR1β (Fc fusion)
chain: QTAERPLKVVAEAGHNVTLPHLLPGFNKTGHVTWLIEIPDYGSAPSNKFVFSGQKLCEFASKNLTWSFPQLIFKCDNYDITLFWLKIENSAIYNVKNTIEATESNIYYQLTVIQINPPNCIITSKYLTEDYCHITINCTNSRYPNKVIFNNVTRSYYGYAKGSSTLPNYFTTSFNVSGITKTFKHNYPFSELCTYPSSENFYNSKETVST
B12: HAdV-F41 CR1β (Fc fusion)
chain: AVPEKTLNNLVRVYALVGTNLSLDSMKTPQIDELTSLSWIKQEDNPNKNLQSFFFIGQKLCEVTKDKITVFNYYPLEFSCANVTLYLYNLKTDDSGLYNGKAHTKELEHNTYVRLYVIDIPPPKCDITSRYLGIQATGEDYCLIEINCTNSKYPAVVKFNGRQSNFYHYVSENGNKELPNFYETHITVNGTHKSFHFNYPFNDLCQTTSALQYNDNVQ

Target: T1, CD45RO ECD
Assay: SPR

Binder | Kd
B1 | 0.39 nM
B2 | 0.11 nM
B3 | 0.06 nM
B4 | 0.33 nM
B5 | 0.38 nM
B6 | 0.08 nM
B7 | 0.08 nM
B8 | 0.38 nM
B9 | 0.06 nM
B10 | 0.01 nM

Target: T2, SLAMF4 ECD
Assay: SPR

Binder | Kd
B11 | 62 nM
B12 | 44 nM
